T1: CXCR2 (interleukin 8 receptor beta chain) (human, UniProt P25025 1-360)
T1 construct: whole, on cells
T1 sequence: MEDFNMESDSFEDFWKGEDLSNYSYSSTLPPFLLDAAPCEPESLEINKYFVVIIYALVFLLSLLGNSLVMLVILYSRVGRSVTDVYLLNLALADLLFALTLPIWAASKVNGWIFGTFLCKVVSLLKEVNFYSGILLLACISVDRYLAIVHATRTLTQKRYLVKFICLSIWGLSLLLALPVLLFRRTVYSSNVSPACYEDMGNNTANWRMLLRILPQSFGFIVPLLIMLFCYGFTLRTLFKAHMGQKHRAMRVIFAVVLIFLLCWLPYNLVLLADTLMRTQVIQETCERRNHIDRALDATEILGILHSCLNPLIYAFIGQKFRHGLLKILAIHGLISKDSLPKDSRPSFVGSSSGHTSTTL

T2: CXCR1 (interleukin 8 receptor alpha chain) (human, UniProt P25024 1-350)
T2 construct: whole, on cells
T2 sequence: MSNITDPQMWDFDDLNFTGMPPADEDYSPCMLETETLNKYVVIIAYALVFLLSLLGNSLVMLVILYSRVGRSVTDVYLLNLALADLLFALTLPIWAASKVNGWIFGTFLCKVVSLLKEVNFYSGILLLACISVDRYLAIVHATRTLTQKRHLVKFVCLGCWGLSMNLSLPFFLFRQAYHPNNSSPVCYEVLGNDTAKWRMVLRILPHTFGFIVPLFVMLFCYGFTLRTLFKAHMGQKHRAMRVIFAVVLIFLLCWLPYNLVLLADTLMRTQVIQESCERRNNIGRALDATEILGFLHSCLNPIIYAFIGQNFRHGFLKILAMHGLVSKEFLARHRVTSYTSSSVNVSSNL


Tests used:
[1] = molecular target: T1, CXCR2 (interleukin 8 receptor beta …); experiment: flow cytometry, GFP-toxin on primary human PMNs (CXCR1/CXCR2+ cells)
[2] = molecular target: T2, CXCR1 (interleukin 8 receptor alpha …); experiment: as above
[3] = molecular target: T1, CXCR2 (interleukin 8 receptor beta …); experiment: legend of FIGS. 6A-6E: flow cytometry on PMNs and pulldown
[4] = molecular target: T2, CXCR1 (interleukin 8 receptor alpha …); experiment: as above

| Binder | binding result [1] | binding result [2] | binding result [3] | binding result [4] |
| --- | --- | --- | --- | --- |
| GFP-LukE (green fluorescent protein-fused LukE) (other, also called LukE-GFP) NTNIENIGDGAEVIKRTEDVSSKKWGVTQNVQFDFVKDKKYNKDALIVKMQGFINSRTSFSDVKGSGYELTKRMIWPFQYNIGLTTKDPNVSLINYLPKNKIETTDVGQTLGYNIGGNFQSAPSIGGNGSFNYSKTISYTQKSYVSEVDKQNSKSVKWGVKANEFVTPDGKKSAHDRYLFVQSPNGPTGSAREYFAPDNQLPPLVQSGFNPSFITTLSHEKGSSDTSEFEISYGRNLDITYATLFPRTGIYAERKHNAFVNRNFVVRYEVNWKTHEIKVKGHN | binds | binds | – | – |
| His-LukE (N-terminal 6xHis-tagged Leukocidin E, S. aureus Newman) (other) NTNIENIGDGAEVIKRTEDVSSKKWGVTQNVQFDFVKDKKYNKDALIVKMQGFINSRTSFSDVKGSGYELTKRMIWPFQYNIGLTTKDPNVSLINYLPKNKIETTDVGQTLGYNIGGNFQSAPSIGGNGSFNYSKTISYTQKSYVSEVDKQNSKSVKWGVKANEFVTPDGKKSAHDRYLFVQSPNGPTGSAREYFAPDNQLPPLVQSGFNPSFITTLSHEKGSSDTSEFEISYGRNLDITYATLFPRTGIYAERKHNAFVNRNFVVRYEVNWKTHEIKVKGHN | – | – | binds | binds |

From patent publication US20190248876A1 (NEW YORK UNIVERSITY, published 2019)
